Here are results for twelve molecules from US20150266925A1 (COMPLIX, published 2015).

B1: MA12 (designed binder)
chain: MSIQEIQKEIAQIQAVIAGIQKYIYTMTGGSGGSGGGGSGGSGGMSIEEIQKQIAAIQCQIAAIQKQIYAMTGSGGGGSGGSGGGGSGMSIEEIQKQIAAIQEQILAIYKQIMAMVT
notes: also called MAl2
B2: MB9 (designed binder)
chain: MSIQQIQKEITNIQEVIAAIQKWIYTMTGGSGGSGGMSIEEIQKQIAAIQCQIAAIQKQIYAMTGSGGGGSGGSGGGGSGMSIEEIQKQIAAIQNQILAIYKQIMAMGS
B3: MA5 (designed binder)
chain: B2 chain with Q4K, T11A, N12Q, T26R, N95D, L98V, G108S
B4: MB38 (designed binder)
chain: MSIQEIQKEIKQIQEVIAGIQKYIYGMTGGSGGSGGMSIEEIQKQIAAIQCQIAAIQKQIYAMTGSGGGGSGMSIEEIQKQIAAIQNQILAIYKQIMAMPQ
B5: MB76 (designed binder)
chain: B4 chain with E5Q, K11T, G19A, G26R, G35D, N87G, P100S, Q101L
B6: MB64 (designed binder)
chain: MSIQQIQKEITQIQAVIAGIQKYIYRMTGGSGGSGGGGSGGSGGMSIEEIQKQIAAIQCQIAAIQKQIYAMTGSGGGGSGMSIEEIQKQIAAIQGQIVAIYKQIMAMAT
B7: MB74 (designed binder)
chain: B6 chain with T11A, Q12T, A15E, V98L, T109I
B8: MA9 (designed binder)
chain: B6 chain with Q12T, G19A, Y23W, R26T, V98I, A108K, T109D
B9: MA15 (designed binder)
chain: B6 chain with Q5E, T11A, Q12N, R26T, A91T, G95A, V98I, A108P, T109R
B10: Cl59m (designed binder)
chain: MSIQQIQKEIAQIQEVIAGIQKWIYMMTGGSGGGSGGGSGGGSGMSIEEIQKQIAAIQKQIAAIQKQIYAMTGGSGGGSGGGSGGGSGMSIEEIQKQITAIKEQIIAIYKQIMAMTP
notes: Rationally designed (in silico matured) variant of Cl59; also called C159m
B11: MB23-PEG (designed binder)
chain: B4 chain with Q4E, E5Q, K11T, Q12T, G19A, G26T, N87E, L90V, P100A, Q101S
modifications: 40 kDa activated maleimide PEG conjugated to the single free thiol group (Cys) of MB23
B12: Cl59 (designed binder)
chain: MSIEEIQKQIASIQEVIAGIQKWIYMMTGGSGGSGGMSIEEIQKQIAAIQKQIAAIQKQIYAMTGGSGGGGSGMSIEEIQKQITAIKEQIIAIYKQIMAMTP
notes: Non-matured Alphabody from the AC11 library, tested as soluble recombinant protein; also called Clone 59; C159

Numbering of substitutions follows the chain as printed.

In the first experiment the target is T1, human IL-23 (human, UniProt Q9NPF7 20-189; P29460 23-328).
T1 construct: Bought recombinant heterodimeric cytokine (eBioscience 34-8239-85 for panning; R&D Systems for the splenocyte assay); also called hIL-23; hIL23
T1 sequence (looked up) 1: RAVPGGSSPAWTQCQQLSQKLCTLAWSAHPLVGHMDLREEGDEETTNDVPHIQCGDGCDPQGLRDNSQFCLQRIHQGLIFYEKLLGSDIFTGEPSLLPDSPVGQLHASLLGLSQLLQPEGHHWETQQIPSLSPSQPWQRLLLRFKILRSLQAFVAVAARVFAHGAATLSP
T1 sequence (looked up) 2: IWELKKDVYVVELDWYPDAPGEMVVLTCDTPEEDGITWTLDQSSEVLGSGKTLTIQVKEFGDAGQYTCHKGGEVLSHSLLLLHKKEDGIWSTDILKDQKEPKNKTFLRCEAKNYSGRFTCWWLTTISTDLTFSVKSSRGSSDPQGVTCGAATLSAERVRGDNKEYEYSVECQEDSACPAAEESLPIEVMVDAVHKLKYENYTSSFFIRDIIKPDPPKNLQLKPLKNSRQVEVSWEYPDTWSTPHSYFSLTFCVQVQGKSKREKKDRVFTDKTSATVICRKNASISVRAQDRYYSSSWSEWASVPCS
Briefly: equilibrium ELISA, soluble polypeptide. In general terms: In an ELISA, binding on a coated surface is turned into a signal by an enzyme label.
As usually defined, the Kd is the concentration at which binding is half-saturated. B1 registered a Kd of 0.11 nM. This lies in the sub-nanomolar range.
Same read-out and setting: in the case of B2 it was 0.27 nM.
Still for that read-out and setting: the value for B3 was 0.1 nM; that for B4 was 0.2 nM; that for B5 was 1.83 nM.
Same read-out and setting: in the case of B6 it was 0.21 nM; in that of B7, 0.35 nM; in that of B8, 0.17 nM.
On to B9, for which the dissociation constant Kd was found to be 0.31 nM. Against the preceding molecule, the Kd is about 1.8-fold higher.

Another experiment addresses T1, human IL-23. Briefly: ELISA.
The molecule B10 yielded an equilibrium dissociation constant (Kd) of 0.3 nM.

Another experiment addresses T1, human IL-23. Briefly: standard equilibrium ELISA.
In the case of B1, the “factor better than the non-matured variant C159” value came out at 38 fold.
As for B3, the “factor better than the non-matured variant C159” value stood at 38 fold.

For the next experiment, the target named is T1, human IL-23. Briefly: standard equilibrium ELISA, soluble polypeptide; MA12.
In turn, B1 yielded a Kd of 0.1 nM. This lies in the sub-nanomolar range.

The next experiment addresses T1, human IL-23. Briefly: cell-based or functional assay.
Take B11: the “IC50 (read off the curve), inhibition of Stat3 phosphorylation in DB cells by MB23-PEG pre-incubated with 35 pM hIL23” value is roughly 1 nM.

The next experiment addresses T1, human IL-23. Briefly: cell-based or functional assay. The source holds these as a separate data set.
B10: the “functional KD (DB fKD), DB cell assay: Stat3 phosphorylation induced by human IL-23; n data = 2” value (“functional KD (DB fKD), DB cell assay” for short) came to 1.73 nM and the “functional KD (Spleno fKD), mouse splenocyte assay: IL-17 production induced by human IL-23; n data = 5” value was 21.7 nM.
For B1 the same measures were 0.35 nM and 0.13 nM.
B12: the “functional KD (Spleno fKD), mouse splenocyte assay: IL-17 production induced by human IL-23; n data = 3” value (“functional KD (Spleno fKD) … n data = 3” below) worked out at 68.8 nM.
For B2, the “functional KD (DB fKD), DB cell assay” value amounted to 0.7 nM.
As for B3, the “functional KD (DB fKD), DB cell assay” value is 0.45 nM and the “functional KD (Spleno fKD) … n data = 3” value was 1.15 nM.
For B4, the “functional KD (Spleno fKD) … n data = 3” value came out at 1.01 nM.
For the molecule B5, the “functional KD (Spleno fKD), mouse splenocyte assay: IL-17 production induced by human IL-23; n data = 1” value was 1.7 nM.
For the molecule B6, the “functional KD (DB fKD), DB cell assay” value amounted to 0.46 nM and the “functional KD (Spleno fKD), mouse splenocyte assay: IL-17 production induced by human IL-23; n data = 5” value was found to be 0.18 nM.
B7: the “functional KD (Spleno fKD), mouse splenocyte assay: IL-17 production induced by human IL-23; n data = 1” value was 0.9 nM.
As for B8, the “functional KD (DB fKD), DB cell assay” value amounted to 0.24 nM and the “functional KD (Spleno fKD) … n data = 3” value is 0.46 nM.
On the same counts, the results for B9 are 0.29 nM and 0.48 nM.

Another experiment addresses T1, human IL-23. Briefly: kinetic ELISA, soluble polypeptide.
The koff is the rate constant with which the complex falls apart. Lower therefore signals slow dissociation. One may read the kon as the rate constant with which the complex forms. Lower therefore signals slower complex formation. In the case of B1, the equilibrium dissociation constant (Kd) amounted to 0.26 nM, the koff was 0.00021 s⁻¹ and the kon stood at 810000 M⁻¹ s⁻¹.
B12 showed a dissociation rate constant (koff) of 0.0007 s⁻¹ and a kon of 100000 M⁻¹ s⁻¹.
Take B2: binding was characterised by a dissociation constant (Kd) of 0.13 nM, the off-rate constant (koff) is 0.00025 s⁻¹ and the kon worked out at 1.9e+06 M⁻¹ s⁻¹.
On the same counts, the results for B3 are 0.03 nM, 0.00016 s⁻¹ and 4.5e+06 M⁻¹ s⁻¹.
On the same counts, the results for B4 are 0.21 nM, 0.00022 s⁻¹ and 1e+06 M⁻¹ s⁻¹.
For B5, binding was put at a Kd of 2.3 nM, the koff was found to be 0.00056 s⁻¹ and the kon worked out at 250000 M⁻¹ s⁻¹.
For B6 the same measures were 0.3 nM, 0.00033 s⁻¹ and 1.1e+06 M⁻¹ s⁻¹.
On the same counts, the results for B7 are 0.25 nM, 0.00016 s⁻¹ and 650000 M⁻¹ s⁻¹.
Molecule B8 registered a dissociation constant Kd of 0.25 nM, an off-rate (koff) of 0.00035 s⁻¹ and a kon of 1.4e+06 M⁻¹ s⁻¹.
For B9 the same measures were 0.09 nM, 7.2e-05 s⁻¹ and 800000 M⁻¹ s⁻¹.

In a further experiment the target is T1, human IL-23. Briefly: equilibrium ELISA, soluble polypeptide; equilibrium ELISA.
As for B12, binding was characterised by a dissociation constant (Kd) of 3.8 nM.

The target of a further experiment is T1, human IL-23. Briefly: kinetic ELISA, soluble polypeptide; kinetic ELISA.
Molecule B12 displayed an equilibrium dissociation constant (Kd) of 7 nM.

The target of another experiment is T1, human IL-23. Briefly: phage-coated ELISA, clone displayed on phage.
B1 came in with a Kd of 0.08 nM.
B12 came in with an equilibrium dissociation constant (Kd) of 3 nM.
B2 returned a dissociation constant Kd of 0.2 nM.
With B3, the Kd was determined as 0.2 nM.
The same measure, in the same setting: the value for B4 was 0.18 nM.
On the same count and under the same terms, the value for B5 was 0.16 nM.
The same measure, in the same setting: in the case of B6 it was 0.09 nM; in that of B7, 0.47 nM.
For the molecule B8, the affinity, expressed as Kd, was 0.2 nM.
The same measure, in the same setting: in the case of B9 it was 0.12 nM.
